Experimental data from the supplement of paper PMC11246515.
± gives the standard deviation of the averaged measurements.

Test: total protein half-life in vivo (active degradation + dilution); higher = more stable protein
[1] = E. coli NCM3722 delta-clpP, growth: N-lim chemostat, doubling time 6 h
[2] = E. coli NCM3722 delta-hslV, growth: N-lim chemostat, doubling time 6 h
[3] = E. coli NCM3722 delta-lon, growth: N-lim chemostat, doubling time 6 h
[4] = E. coli NCM3722 delta-smpB, growth: N-lim chemostat, doubling time 6 h
[5] = wild type E. coli NCM3722, growth: C-lim chemostat, doubling time 3 h
[6] = wild type E. coli NCM3722, growth: C-lim chemostat, doubling time 6 h
[7] = wild type E. coli NCM3722, growth: C-lim chemostat, doubling time 12 h
[8] = wild type E. coli NCM3722, growth: N-lim chemostat, doubling time 6 h
[9] = wild type E. coli NCM3722, growth: N-lim chemostat, doubling time 12 h
[10] = wild type E. coli NCM3722, growth: P-lim chemostat, doubling time 6 h
[11] = wild type E. coli NCM3722, growth: P-lim chemostat, doubling time 12 h
[12] = E. coli NCM3722 delta-clpP delta-lon delta-hslV, growth: N-lim chemostat, doubling time 6 h

| Sequence | total protein half-life in vivo [1] | total protein half-life in vivo [2] | total protein half-life in vivo [3] | total protein half-life in vivo [4] | total protein half-life in vivo [5] | total protein half-life in vivo [6] | total protein half-life in vivo [7] | total protein half-life in vivo [8] | total protein half-life in vivo [9] | total protein half-life in vivo [10] | total protein half-life in vivo [11] | total protein half-life in vivo [12] |
| --- | --- | --- | --- | --- | --- | --- | --- | --- | --- | --- | --- | --- |
| MKLRWFAFLIVLLAGCSSKHDYTNPPWNAKVPVQRAMQWMPISQKAGAAWGVDPQLITAIIAIESGGNPNAVSKSNAIGLMQLKASTSGRDVYRRMGWSGEPTTSELKNPERNISMGAAYLNILETGPLAGIEDPKVLQYALVVSYANGAGALLRTFSSDRKKAISKINDLDADEFLEHVARNHPAPQAPRYIYKLEQALDAM [P0C960] | 4.98 ± 0.62 h | 3.8 ± 0.54 h | 3.57 ± 0.47 h | 2.72 ± 0.08 h | 1.97 ± 0.14 h | 2.98 ± 0.34 h | 6.46 ± 0.21 h | 2.84 ± 0.17 h | 3.2 h | 4 ± 0.3 h | 7.81 ± 0.18 h | – |
| MKLSRRSFMKANAVAAAAAAAGLSVPGVARAVVGQQEAIKWDKAPCRFCGTGCGVLVGTQQGRVVACQGDPDAPVNRGLNCIKGYFLPKIMYGKDRLTQPLLRMKNGKYDKEGEFTPITWDQAFDVMEEKFKTALKEKGPESIGMFGSGQWTIWEGYAASKLFKAGFRSNNIDPNARHCMASAVVGFMRTFGMDEPMGCYDDIEQADAFVLWGANMAEMHPILWSRITNRRLSNQNVTVAVLSTYQHRSFELADNGIIFTPQSDLVILNYIANYIIQNNAINQDFFSKHVNLRKGATDIGYGLRPTHPLEKAAKNPGSDASEPMSFEDYKAFVAEYTLEKTAEMTGVPKDQLEQLAQLYADPNKKVISYWTMGFNQHTRGVWANNLVYNLHLLTGKISQPGCGPFSLTGQPSACGTAREVGTFAHRLPADMVVTNEKHRDICEKKWNIPSGTIPAKIGLHAVAQDRALKDGKLNVYWTMCTNNMQAGPNINEERMPGWRDPRNFIIVSDPYPTVSALAADLILPTAMWVEKEGAYGNAERRTQFWRQQVQAPGEAKSDLWQLVQFSRRFKTEEVWPEDLLAKKPELRGKTLYEVLYATPEVSKFPVSELAEDQLNDESRELGFYLQKGLFEEYAWFGRGHGHDLAPFDDYHKARGLRWPVVNGKETQWRYSEGNDPYVKAGEGYKFYGKPDGKAVIFALPFEPAAEAPDEEYDLWLSTGRVLEHWHTGSMTRRVPELHRAFPEAVLFIHPLDAKARDLRRGDKVKVVSRRGEVISIVETRGRNRPPQGLVYMPFFDAAQLVNKLTLDATDPLSKETDFKKCAVKLEKV | – | 5.32 ± 0.18 h | 3.56 ± 0.76 h | 3.46 ± 0.36 h | 2.03 ± 0.31 h | 4.52 ± 0.7 h | 8.61 ± 1.2 h | 4.268 ± 0.041 h | 5.85 ± 2.3 h | 3.574 ± 0.034 h | > 16 h | 4.71 h |
| MKLVHMASGLAVAIALAACADKSADIQTPAPAANTSISATQQPAIQQPNVSGTVWIRQKVALPPDAVLTVTLSDASLADAPSKVLAQKAVRTEGKQSPFSFVLSFNPADVQPNARILLSAAITVNDKLVFITDTVQPVINQGGTKADLTLVPVQQTAVPVQASGGATTTVPSTSPTQVNPSSAVPAPTQY | 6.1 ± 0.34 h | 6.08 h | 6.69 ± 0.2 h | 5.23 ± 0.59 h | 3.57 ± 0.22 h | 5.53 ± 0.0062 h | 11.4 ± 4.4 h | 5.25 h | 9.14 ± 0.82 h | 5.51 ± 0.33 h | 11.8 ± 0.68 h | 4.41 ± 0.88 h |
| MKMTKLATLFLTATLSLASGAALAADSGAQTNNGQANAAADAGQVAPDARENVAPNNVDNNGVNTGSGGTMLHSDGSSMNNDGMTKDEEHKNTMCKDGRCPDINKKVQTGDGINNDVDTKTDGTTQ [P0AAV6] | 4.92 ± 2.1 h | 5.44 ± 0.35 h | 6.63 ± 0.59 h | 3.73 ± 1.6 h | 1.7 h | 5.24 h | 4.86 h | 4.78 h | 10.7 ± 3.5 h | 5.84 h | 10.2 ± 1.1 h | 4.05 h |
| MKNASTVSEDTASNQEPTLHRGLHNRHIQLIALGGAIGTGLFLGIGPAIQMAGPAVLLGYGVAGIIAFLIMRQLGEMVVEEPVSGSFAHFAYKYWGPFAGFLSGWNYWVMFVLVGMAELTAAGIYMQYWFPDVPTWIWAAAFFIIINAVNLVNVRLYGETEFWFALIKVLAIIGMIGFGLWLLFSGHGGEKASIDNLWRYGGFFATGWNGLILSLAVIMFSFGGLELIGITAAEARDPEKSIPKAVNQVVYRILLFYIGSLVVLLALYPWVEVKSNSSPFVMIFHNLDSNVVASALNFVILVASLSVYNSGVYSNSRMLFGLSVQGNAPKFLTRVSRRGVPINSLMLSGAITSLVVLINYLLPQKAFGLLMALVVATLLLNWIMICLAHLRFRAAMRRQGRETQFKALLYPFGNYLCIAFLGMILLLMCTMDDMRLSAILLPVWIVFLFMAFKTLRRK | 5.51 h | – | – | 5.23 ± 0.36 h | – | – | – | – | – | – | > 16 h | 5.66 h |
| MKNCVIVSAVRTAIGSFNGSLASTSAIDLGATVIKAAIERAKIDSQHVDEVIMGNVLQAGLGQNPARQALLKSGLAETVCGFTVNKVCGSGLKSVALAAQAIQAGQAQSIVAGGMENMSLAPYLLDAKARSGYRLGDGQVYDVILRDGLMCATHGYHMGITAENVAKEYGITREMQDELALHSQRKAAAAIESGAFTAEIVPVNVVTRKKTFVFSQDEFPKANSTAEALGALRPAFDKAGTVTAGNASGINDGAAALVIMEESAALAAGLTPLARIKSYASGGVPPALMGMGPVPATQKALQLAGLQLADIDLIEANEAFAAQFLAVGKNLGFDSEKVNVNGGAIALGHPIGASGARILVTLLHAMQARDKTLGLATLCIGGGQGIAMVIERLN | 3.36 h | – | 2.93 ± 0.073 h | 2.808 ± 0.0077 h | 3.34 h | 5.45 ± 1.1 h | 8 h | 2.92 ± 0.27 h | 3.67 ± 0.067 h | 5.43 h | – | 4.78 ± 0.92 h |
| MKNNPLISIYMPTWNRQQLAIRAIKSVLRQDYSNWEMIIVDDCSTSWEQLQQYVTALNDPRITYIHNDINSGACAVRNQAIMLAQGEYITGIDDDDEWTPNRLSVFLAHKQQLVTHAFLYANDYVCQGEVYSQPASLPLYPKSPYSRRLFYKRNIIGNQVFTWAWRFKECLFDTELKAAQDYDIFLRMVVEYGEPWKVEEATQILHINHGEMQITSSPKKFSGYFHFYRKHKDKFDRASKKYQLFTLYQIRNKRMTWRTLLTLLSVRNGKRLADGIRGR | – | – | 2.71 ± 0.069 h | 1.7 ± 0.1 h | – | – | – | – | – | – | – | 3.18 h |
